The record followed here is patent US20170260531.

In series [1] the target is PDGF-BB (Homo sapiens) (UniProt P01127). The series is described as follows: filter. To be noted: Bn-dU.
Series [2] has as its system T1, VEGF-121 (Homo sapiens), P15692-9.
T1 sequence: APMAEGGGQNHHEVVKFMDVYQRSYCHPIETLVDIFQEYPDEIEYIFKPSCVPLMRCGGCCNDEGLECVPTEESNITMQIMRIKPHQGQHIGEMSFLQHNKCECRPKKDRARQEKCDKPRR
The series is described as follows: filter. To be noted: Nap-dU at all P positions; 2'-OMe at C6,G9,C12,G15,A17,G18,Nap22,G28,G29; 0.035 nM in Table 14.

Sequence of UniProt P01127 (P01127 82-190): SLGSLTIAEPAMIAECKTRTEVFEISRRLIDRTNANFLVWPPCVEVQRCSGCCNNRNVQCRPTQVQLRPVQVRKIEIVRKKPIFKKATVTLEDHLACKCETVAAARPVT

One may read the Kd as the free concentration of one partner at which half of the binding sites on the other are occupied at equilibrium, for simple one-to-one binding. Low readings indicate tighter binding, high ones weaker binding. As to “TTACGACTACGTTAACGCGTTTATAGCG [4149-8_78]”, in series [1] (C3 at position 15), the Kd was less than 10 nM.
Consider “TACGACTACGTTACACGCGTTTATAGCG [4149-8_64]”, for which, in series [1] (C3 at position 1), the Kd is less than 10 nM.
In series [1] (2'-OMe at position 11), “TTACGACTACGTTACACGCGTTTATAGCG [4149-8_51]” gave a Kd of less than 10 nM.
In turn, “TTACGACTACGTTACACGCGTTTATAGC [4149-8_92]” returned a Kd in series [1] (C3 at position 29) of less than 10 nM.
In the case of “TTACGACTACGTTACACGCGTTTATAGCG [4149-8_58]”, the Kd in series [1] (2'-OMe at position 20) is less than 10 nM.
“TTACGACTACGTTACACGCGTTTATAGG [4149-8_91]” had a Kd in series [1] (C3 at position 28) of less than 10 nM.
The sequence “TTACGACTACGTTACACGCGTTTATAGCG [4149-8_54]” had a Kd in series [1] (2'-OMe at position 16) of less than 10 nM.
For “TTACGACACGTTACACGCGTTTATAGCG [4149-8_71]”, the Kd in series [1] (C3 at position 8) is less than 10 nM.
In turn, “TTACGACTACGTTACACGCGTTTATAGCG [4149-8_60]” gave an equilibrium dissociation constant (Kd) in series [1] (2'-OMe at position 26) of less than 10 nM.
In the case of “TTACGACTACGTTACACGCGTTTATAGCG [4149-8_63]”, the Kd in series [1] (2'-OMe at position 29) is less than 10 nM.
“TTACGACTACGTTACACGCGTTTTAGCG [4149-8_87]” had a dissociation constant Kd in series [1] (C3 at position 24) of less than 10 nM.
The sequence “TTACGACTACGTTACACGCGTTTATAGCG [4149-8_61]” returned a Kd in series [1] (2'-OMe at position 27) of less than 10 nM.
As to TTACGTTACCGTTTATAG [4149-8_405], the Kd in series [1] (Heg, C3) is more than 10 nM.
Regarding “TTACACTACGTTACACGCGTTTATAGCG [4149-8_68]”, the Kd in series [1] (C3 at position 5) was less than 10 nM.
For the sequence TTACGTTACCGCGTTTATAGCG [4149-8_426], the Kd in series [1] (MBn-dU, Heg, C3, 2'-OMe) was more than 10 nM.
“TTACGCTACGTTACACGCGTTTATAGCG [4149-8_69]” came in with a Kd in series [1] (C3 at position 6) of less than 10 nM.
“TTACGACTACGTTACACGCGTTTATAGCG [4149-8_46]” displayed a Kd in series [1] (2'-OMe at position 5) of less than 10 nM.
As for “TTACGACTAGTTACACGCGTTTATAGCG [4149-8_73]”, in series [1] (C3 at position 10), the Kd is less than 10 nM.
Consider “TTACGACTACGTTACACGCGTTTATAGCG [4149-8_44]”, for which the Kd in series [1] (2'-OMe at position 3) was less than 10 nM.
In series [1] (2'-OMe at position 17), “TTACGACTACGTTACACGCGTTTATAGCG [4149-8_55]” showed a Kd of less than 10 nM.
Sequence “TTACGATACGTTACACGCGTTTATAGCG [4149-8_70]” showed a Kd in series [1] (C3 at position 7) of less than 10 nM.
As for “TTACGACTACGTTACACGCGTTTATAGCG [4149-8_53]”, in series [1] (2'-OMe at position 15), the Kd was less than 10 nM.
The sequence “TTACGACTACGTTACACGCGTTTATAGCG [4149-8_47]” had a dissociation constant Kd in series [1] (2'-OMe at position 6) of less than 10 nM.
“TTACGACTACGTTACCGCGTTTATAGCG [4149-8_79]” had a dissociation constant Kd in series [1] (C3 at position 16) of less than 10 nM.
Take “TTACGACTACGTTACACGCGTTTATAGCG [4149-8_62]”: the Kd in series [1] (2'-OMe at position 28) is less than 10 nM.
“TTACGACTACGTTACACGCGTTTATAGCG [4149-8_50]” returned a Kd in series [1] (2'-OMe at position 10) of less than 10 nM.
“TTACGACTCGTTACACGCGTTTATAGCG [4149-8_72]” registered a Kd in series [1] (C3 at position 9) of less than 10 nM.
In series [1] (2'-OMe at position 18), “TTACGACTACGTTACACGCGTTTATAGCG [4149-8_56]” had a Kd of less than 10 nM.
As to “CCGTTCAAGTGCTTGTAGGATTTAAATGG [4867-31_192]”, the Kd in series [2] was 0.023 nM.
With “TTACGACTACGTTACACGCGTTTATAGCG [4149-8_57]”, the Kd in series [1] (2'-OMe at position 19) was less than 10 nM.
On to “TTACGACTACGTTACAGCGTTTATAGCG [4149-8_80]”, for which the Kd in series [1] (C3 at position 17) was less than 10 nM.
“TTACGACTACGTTACACGCGTTTATAGCG [4149-8_52]” returned a Kd in series [1] (2'-OMe at position 14) of less than 10 nM.
“TTAGACTACGTTACACGCGTTTATAGCG [4149-8_67]” showed a Kd in series [1] (C3 at position 4) of less than 10 nM.
As for “TTACGACTACGTTACACGCGTTTATAGCG [4149-8_59]”, the Kd in series [1] (2'-OMe at position 24) is less than 10 nM.
On to “TTACGACTACGTTACACGCGTTTATAGCG [4149-8_49]”, for which the dissociation constant Kd in series [1] (2'-OMe at position 9) was less than 10 nM.
For “TTACGACTACGTTACACGCGTTTATAGCG [4149-8_45]”, the Kd in series [1] (2'-OMe at position 4) is less than 10 nM.
In series [1] (2'-OMe at position 7), “TTACGACTACGTTACACGCGTTTATAGCG [4149-8_48]” displayed a Kd of less than 10 nM.
